Measured values: publication PMC2114693 (The Journal of Cell Biology, 1987)
“And” between values parts separate entries of the source, which are not always exact repeats. Equal entries are not always repeated. Blank lines part the entries; values can stand above or below the binder they belong to.

Assays:
[1] = target: human erythrocyte spectrin (human, UniProt P02549;P11277); assay: co-sedimentation
[2] = target: chicken skeletal muscle actin (chicken, UniProt P68139 1-377); assay: co-sedimentation

Sequence of human erythrocyte spectrin (P02549 whole entry, chain 1 of 2): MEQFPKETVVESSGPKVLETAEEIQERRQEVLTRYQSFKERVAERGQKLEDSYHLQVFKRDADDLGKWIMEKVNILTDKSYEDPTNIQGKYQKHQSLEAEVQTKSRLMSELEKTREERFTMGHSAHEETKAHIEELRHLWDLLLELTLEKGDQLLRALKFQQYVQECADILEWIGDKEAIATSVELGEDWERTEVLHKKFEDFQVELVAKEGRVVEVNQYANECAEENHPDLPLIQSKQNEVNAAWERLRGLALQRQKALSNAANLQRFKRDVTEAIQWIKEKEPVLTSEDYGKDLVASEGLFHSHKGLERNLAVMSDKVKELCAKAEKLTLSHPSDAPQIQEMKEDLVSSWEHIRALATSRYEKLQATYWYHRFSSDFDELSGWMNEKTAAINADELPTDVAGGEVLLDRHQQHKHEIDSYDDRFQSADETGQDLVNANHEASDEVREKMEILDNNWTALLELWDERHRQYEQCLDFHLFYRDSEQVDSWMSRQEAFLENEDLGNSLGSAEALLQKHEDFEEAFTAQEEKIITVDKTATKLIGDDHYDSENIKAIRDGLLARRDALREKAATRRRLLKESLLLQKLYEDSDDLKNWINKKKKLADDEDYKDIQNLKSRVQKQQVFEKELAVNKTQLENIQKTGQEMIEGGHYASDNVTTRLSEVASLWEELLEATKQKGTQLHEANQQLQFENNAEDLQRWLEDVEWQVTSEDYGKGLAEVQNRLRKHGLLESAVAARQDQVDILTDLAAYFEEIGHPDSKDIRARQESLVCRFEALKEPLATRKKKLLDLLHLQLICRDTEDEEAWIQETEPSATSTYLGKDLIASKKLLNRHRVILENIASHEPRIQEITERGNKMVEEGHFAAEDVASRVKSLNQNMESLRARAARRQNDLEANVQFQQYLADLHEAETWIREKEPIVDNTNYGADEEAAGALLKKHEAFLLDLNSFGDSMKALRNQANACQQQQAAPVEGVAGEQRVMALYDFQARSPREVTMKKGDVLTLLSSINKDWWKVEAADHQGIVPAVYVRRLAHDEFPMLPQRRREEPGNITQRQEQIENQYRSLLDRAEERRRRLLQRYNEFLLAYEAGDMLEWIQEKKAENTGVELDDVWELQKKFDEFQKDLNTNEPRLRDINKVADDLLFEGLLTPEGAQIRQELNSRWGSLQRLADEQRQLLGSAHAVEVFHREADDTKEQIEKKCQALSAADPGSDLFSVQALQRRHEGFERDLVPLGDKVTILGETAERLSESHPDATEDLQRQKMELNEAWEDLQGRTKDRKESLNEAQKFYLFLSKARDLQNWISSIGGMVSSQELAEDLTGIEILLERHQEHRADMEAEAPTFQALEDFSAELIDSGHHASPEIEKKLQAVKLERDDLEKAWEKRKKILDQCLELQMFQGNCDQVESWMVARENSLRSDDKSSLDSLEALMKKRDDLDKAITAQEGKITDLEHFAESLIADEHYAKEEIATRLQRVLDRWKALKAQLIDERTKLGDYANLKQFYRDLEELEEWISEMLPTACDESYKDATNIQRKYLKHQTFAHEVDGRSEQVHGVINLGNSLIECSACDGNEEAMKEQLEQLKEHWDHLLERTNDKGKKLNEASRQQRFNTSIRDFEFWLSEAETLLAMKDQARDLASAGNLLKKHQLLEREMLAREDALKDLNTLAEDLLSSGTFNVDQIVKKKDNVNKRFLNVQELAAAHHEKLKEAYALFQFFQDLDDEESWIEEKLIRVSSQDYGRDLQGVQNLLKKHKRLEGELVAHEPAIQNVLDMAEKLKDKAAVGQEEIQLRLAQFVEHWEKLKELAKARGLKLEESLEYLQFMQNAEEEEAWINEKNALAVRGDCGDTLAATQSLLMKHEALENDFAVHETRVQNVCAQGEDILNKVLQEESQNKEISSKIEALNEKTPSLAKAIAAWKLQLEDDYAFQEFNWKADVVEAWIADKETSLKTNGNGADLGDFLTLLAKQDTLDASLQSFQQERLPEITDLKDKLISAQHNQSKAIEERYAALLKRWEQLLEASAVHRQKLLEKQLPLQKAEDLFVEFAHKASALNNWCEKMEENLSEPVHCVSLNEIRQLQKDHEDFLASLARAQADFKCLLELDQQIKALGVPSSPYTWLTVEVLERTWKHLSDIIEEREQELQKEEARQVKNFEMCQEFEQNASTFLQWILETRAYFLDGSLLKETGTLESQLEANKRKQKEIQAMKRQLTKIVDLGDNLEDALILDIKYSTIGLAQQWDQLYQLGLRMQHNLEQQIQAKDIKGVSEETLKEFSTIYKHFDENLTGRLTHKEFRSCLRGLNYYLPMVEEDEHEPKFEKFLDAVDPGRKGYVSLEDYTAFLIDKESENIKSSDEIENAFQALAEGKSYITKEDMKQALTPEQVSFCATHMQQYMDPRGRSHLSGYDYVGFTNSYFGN
Sequence of human erythrocyte spectrin (P11277 whole entry, chain 2 of 2): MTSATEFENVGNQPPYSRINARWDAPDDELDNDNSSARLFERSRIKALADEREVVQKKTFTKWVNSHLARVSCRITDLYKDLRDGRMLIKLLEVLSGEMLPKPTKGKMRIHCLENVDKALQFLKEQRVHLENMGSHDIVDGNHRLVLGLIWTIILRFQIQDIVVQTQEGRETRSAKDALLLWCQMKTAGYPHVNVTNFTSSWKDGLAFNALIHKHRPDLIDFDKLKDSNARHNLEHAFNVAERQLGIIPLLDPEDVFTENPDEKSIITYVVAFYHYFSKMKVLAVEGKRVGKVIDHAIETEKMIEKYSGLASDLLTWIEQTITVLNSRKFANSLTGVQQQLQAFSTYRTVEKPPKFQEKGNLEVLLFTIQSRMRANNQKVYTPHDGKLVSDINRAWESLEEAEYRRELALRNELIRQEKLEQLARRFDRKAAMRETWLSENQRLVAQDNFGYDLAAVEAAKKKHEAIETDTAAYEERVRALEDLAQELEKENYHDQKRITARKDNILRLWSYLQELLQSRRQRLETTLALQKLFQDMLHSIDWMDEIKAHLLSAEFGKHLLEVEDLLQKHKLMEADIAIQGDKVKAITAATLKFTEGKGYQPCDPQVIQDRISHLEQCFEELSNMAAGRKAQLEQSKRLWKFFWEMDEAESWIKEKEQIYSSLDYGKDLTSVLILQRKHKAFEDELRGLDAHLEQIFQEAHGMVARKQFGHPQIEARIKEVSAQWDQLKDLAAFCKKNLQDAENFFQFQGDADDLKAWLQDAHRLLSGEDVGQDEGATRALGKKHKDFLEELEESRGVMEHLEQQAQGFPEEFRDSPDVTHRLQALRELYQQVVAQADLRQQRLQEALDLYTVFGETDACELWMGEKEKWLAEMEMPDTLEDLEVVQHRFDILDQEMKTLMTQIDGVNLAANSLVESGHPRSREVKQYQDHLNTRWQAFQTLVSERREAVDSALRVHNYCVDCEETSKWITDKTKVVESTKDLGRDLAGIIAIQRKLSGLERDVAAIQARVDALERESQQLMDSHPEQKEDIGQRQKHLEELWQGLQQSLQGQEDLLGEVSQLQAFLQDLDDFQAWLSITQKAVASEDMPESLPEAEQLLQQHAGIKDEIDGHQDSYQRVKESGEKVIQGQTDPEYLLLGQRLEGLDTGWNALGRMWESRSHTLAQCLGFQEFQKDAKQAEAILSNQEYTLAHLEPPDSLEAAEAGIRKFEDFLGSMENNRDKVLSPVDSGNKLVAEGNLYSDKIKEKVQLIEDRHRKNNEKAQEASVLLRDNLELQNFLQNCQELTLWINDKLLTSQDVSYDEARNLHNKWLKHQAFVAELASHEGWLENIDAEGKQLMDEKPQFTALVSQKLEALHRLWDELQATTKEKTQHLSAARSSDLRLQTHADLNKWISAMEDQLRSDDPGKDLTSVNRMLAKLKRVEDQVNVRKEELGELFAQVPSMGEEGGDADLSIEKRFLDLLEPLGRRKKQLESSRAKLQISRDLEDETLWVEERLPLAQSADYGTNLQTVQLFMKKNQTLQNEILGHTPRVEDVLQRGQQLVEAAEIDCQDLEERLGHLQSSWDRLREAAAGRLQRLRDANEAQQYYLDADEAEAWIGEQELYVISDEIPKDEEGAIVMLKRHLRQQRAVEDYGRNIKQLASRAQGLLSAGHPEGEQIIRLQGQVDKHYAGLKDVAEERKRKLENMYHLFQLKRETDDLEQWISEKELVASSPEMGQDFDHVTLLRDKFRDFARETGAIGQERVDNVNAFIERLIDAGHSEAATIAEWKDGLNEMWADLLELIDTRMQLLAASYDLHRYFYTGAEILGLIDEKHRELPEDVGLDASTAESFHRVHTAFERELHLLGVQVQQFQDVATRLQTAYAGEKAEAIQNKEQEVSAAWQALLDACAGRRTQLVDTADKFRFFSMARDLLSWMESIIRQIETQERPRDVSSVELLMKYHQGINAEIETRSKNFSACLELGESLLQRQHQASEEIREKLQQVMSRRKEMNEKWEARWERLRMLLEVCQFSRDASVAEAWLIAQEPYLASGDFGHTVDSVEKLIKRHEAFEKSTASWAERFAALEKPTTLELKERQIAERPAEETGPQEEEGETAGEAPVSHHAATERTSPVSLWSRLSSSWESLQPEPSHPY

Kd [1]: 104 nM
B1: adducin-actin complex (complex)
chain 1: MNGDSRAAVVTSPPPTTAPHKERYFDRVDENNPEYLRERNMAPDLRQDFNMMEQKKRVSMILQSPAFCEELESMIQEQFKKGKNPTGLLALQQIADFMTTNVPNVYPAAPQGGMAALNMSLGMVTPVNDLRGSDSIAYDKGEKLLRCKLAAFYRLADLFGWSQLIYNHITTRVNSEQEHFLIVPFGLLYSEVTASSLVKINLQGDIVDRGSTNLGVNQAGFTLHSAIYAARPDVKCVVHIHTPAGAAVSAMKCGLLPISPEALSLGEVAYHDYHGILVDEEEKVLIQKNLGPKSKVLILRNHGLVSVGESVEEAFYYIHNLVVACEIQVRTLASAGGPDNLVLLNPEKYKAKSRSPGSPVGEGTGSPPKWQIGEQEFEALMRMLDNLGYRTGYPYRYPALREKSKKYSDVEVPASVTGYSFASDGDSGTCSPLRHSFQKQQREKTRWLNSGRGDEASEEGQNGSSPKSKTKWTKEDGHRTSTSAVPNLFVPLNTNPKEVQEMRNKIREQNLQDIKTAGPQSQVLCGVVMDRSLVQGELVTASKAIIEKEYQPHVIVSTTGPNPFTTLTDRELEEYRREVERKQKGSEENLDEAREQKEKSPPDQPAVPHPPPSTPIKLEEDLVPEPTTGDDSDAATFKPTLPDLSPDEPSEALGFPMLEKEEEAHRPPSPTEAPTEASPEPAPDPAPVAEEAAPSAVEEGAAADPGSDGSPGKSPSKKKKKFRTPSFLKKSKKKSDS
chain 2: MSEETVPEAASPPPPQGQPYFDRFSEDDPEYMRLRNRAADLRQDFNLMEQKKRVTMILQSPSFREELEGLIQEQMKKGNNSSNIWALRQIADFMASTSHAVFPTSSMNVSMMTPINDLHTADSLNLAKGERLMRCKISSVYRLLDLYGWAQLSDTYVTLRVSKEQDHFLISPKGVSCSEVTASSLIKVNILGEVVEKGSSCFPVDTTGFCLHSAIYAARPDVRCIIHLHTPATAAVSAMKWGLLPVSHNALLVGDMAYYDFNGEMEQEADRINLQKCLGPTCKILVLRNHGVVALGDTVEEAFYKIFHLQAACEIQVSALSSAGGVENLILLEQEKHRPHEVGSVQWAGSTFGPMQKSRLGEHEFEALMRMLDNLGYRTGYTYRHPFVQEKTKHKSEVEIPATVTAFVFEEDGAPVPALRQHAQKQQKEKTRWLNTPNTYLRVNVADEVQRSMGSPRPKTTWMKADEVEKSSSGMPIRIENPNQFVPLYTDPQEVLEMRNKIREQNRQDVKSAGPQSQLLASVIAEKSRSPSTESQLMSKGDEDTKDDSEETVPNPFSQLTDQELEEYKKEVERKKLELDGEKETAPEEPGSPAKSAPASPVQSPAKEAETKSPLVSPSKSLEEGTKKTETSKAATTEPETTQPEGVVVNGREEEQTAEEILSKGLSQMTTSADTDVDTSKDKTESVTSGPMSPEGSPSKSPSKKKKKFRTPSFLKKSKKKEKVES
chain 3: […]

Kd [2]: 283 nM | stoichiometry N [2]: ~0.143 M/M (adducin to actin) and 0.16 M/M (adducin to actin)
B2: human erythrocyte adducin (complex)
chain 1: B1 chain 1
chain 2: B1 chain 2
